Source: article PMC9445180

What was measured:
[1] = target: HTRA2^PD/PDZ-ΔLoopA (human) (UniProt O43464); assay: SEC; HTRA proteins and their LoopA deletion mutants alone; Superdex 200 Increase 3.2/300; 200 mM NaCl, 20 mM HEPES pH 7.5, 0.25% CHAPS; size against gel filtration standard
[2] = target: HTRA3^PD/PDZ-ΔLoopA (human) (UniProt P83110); assay: as above

| stoichiometry N [1] | stoichiometry N [2] | Substance |
| --- | --- | --- |
| 3 |  | HTRA2^PD/PDZ-ΔLoopA (from UniProt O43464 134-458) (domain or fragment) |
|  | 3 | HTRA3^PD/PDZ-ΔLoopA (from UniProt P83110 130-453) (domain or fragment) |
